According to patent US20210087291A1 (Hoffmann-La Roche, published 2021):
Substitutions are numbered along the chain they refer to.

Tests used:
human TIM-3 on cells [1] = molecular target: T1, human TIM-3 on cells (human, UniProt Q8TDQ0 22-301); experiment: cell-based or functional assay
human TIM-3 on cells [2] = molecular target: T1, human TIM-3 on cells; experiment: cell-based or functional assay; remark: listed apart in the source
human TIM-3 on cells [3] = molecular target: T1, human TIM-3 on cells; experiment: cell-based or functional assay; remark: listed apart in the source
[4] = molecular target: T2, cynomolgus TIM-3 on isolated cyno CD14+ monocytes (cynomolgus); experiment: flow cytometry, cyno CD14+ monocytes cyno3
T2 construct: whole, on cells

human TIM-3 on cells [5] = molecular target: T1, human TIM-3 on cells; experiment: flow cytometry, human CD14+ monocytes donor2
Description: (§1) CD14+ Monocytes were isolated from anticoagulated peripheral blood of healthy donors by density gradient centrifugation using Ficoll-Paque (GE Healthcare) (see General Protocols in the User Manuals or visit www.miltenyibiotec.com/protocols) and subsequent positive selection via CD14 MicroBeads. First the CD14+ cells are magnetically labeled with CD14 MicroBeads. Then the cell suspension is loaded onto a MACS® Column which is placed in the magnetic field of a MACS Separator. The magnetically labeled CD14+ cells are retained in the column. The unlabeled cells run through, this cell fraction is depleted of CD14+ cells. After removal of the column from the magnetic field, the magnetically retained CD14+ cells can be eluted as the positively selected cell fraction. After centrifugation at 200×g for 10 min at room temperature the monocytes were harvested and used directly in binding assay or resuspended in freezing medium (10% DMSO, 90% FCS) at 1.0E+07 cells/ml and stored in liquid nitrogen.
(§2) 1×10⁵ CD14+ isolated human monocytes (50 μl/well) were put into 98 well-v bottom MTP in fresh culture medium and incubated with Redimune® NF Liquid for 15 min at RT to block unspecific binding. […] After washing and centrifugation MFI signals of stained cells were analyzed by BD Biosciences FACSCanto flow cytometer.

[6] = molecular target: T3, huFc fused dimeric human Tim3-ECD (human, UniProt Q8TDQ0 22-202); experiment: SPR Biacore, bivalent Tim3
T3 construct: also called huTim3Fc; bivalent Tim3
Protocol: (§3) Therefore, an anti-mouse IgG was immobilized by amine coupling to the surface of a (Biacore) CM5 sensor chip. The samples were then captured and hu/cy Tim3-ECD was bound to them. The sensor chip surface was regenerated after each analysis cycle. The equilibrium constant KD was finally gained by fitting the data to a 1:1 langmuir interaction model.
(§4) Flow cell temperature was set to 25° C. and sample compartment temperature to 12° C. The system was primed with running buffer. The samples were injected for 30 seconds with a concentration of 200 μg/ml and bound to the spots 1 and 5 of each flow cell, allowing the measurement of eight samples in parallel. Then a complete set of different (monomeric cyno, monomeric human and huFc fused dimeric human Tim3-ECD) concentrations (s. Table X) was injected over each sample for 240 s followed by a dissociation time of 30/1800 s (s. Table 1). Each analysis cycle (sample capture, spot 1 and 5—Tim3 ECD injection) was then regenerated with a 30 seconds long injection of Glycine-HCl pH 1.7. The flow rate was set to 30 μl/min for the whole run. Finally, the double referenced data was fitted to a 1:1 langmuir interaction model with the Biacore B4000 Evaluation Software.

[7] = molecular target: T3, huFc fused dimeric human Tim3-ECD; experiment: SPR Biacore, antibody captured by anti-mouse IgG
Protocol: as §3, §4

human TIM-3 on cells [8] = molecular target: T1, human TIM-3 on cells; experiment: flow cytometry, human CD14+ monocytes donor1
Description: as §1, §2

human TIM-3 on cells [9] = molecular target: T1, human TIM-3 on cells; experiment: flow cytometry, human CD14+ monocytes donor3
Tim3-ECD-His-Biotin = molecular target: T4, Tim3-ECD-His-Biotin (human, UniProt Q8TDQ0 22-202); experiment: ELISA on Tim3-ECD-His-Biotin
T4 construct: also called human Tim3 (ELISA); Biochem Human
Protocol: After washing (3×90 μl/well with PBST-buffer) 25 μl aTim3 samples or diluted (1:2 steps) reference antibody aTim3 F38-2E2 (Biolegend) was added and incubated 1 h at RT. After washing (3×90 μl/well with PBST-buffer) 25 μl/well sheep-anti-mouse-POD (GE NA9310V) was added in 1:9000 dilution and incubated at RT for 1 h while shaking at 400 rpm rotation. After washing (4×90 μl/well with PBST-buffer) 25 μl/well TMB substrate (Calbiochem, #CL07) was added and incubated until OD 1.5-2.5. Then the reaction was stopped by addition of 25 μl/well 1N HCL-solution.

[10] = molecular target: T2, cynomolgus TIM-3 on isolated cyno CD14+ …; experiment: flow cytometry, cyno CD14+ monocytes cyno2
Description: (§5) CD14+ Monocytes were isolated from cynomolgus monkey anticoagulated peripheral blood (Covance) by density gradient centrifugation using Ficoll-Paque (GE Healthcare) (see General Protocols in the User Manuals or visit www.miltenyibiotec.com/protocols) and subsequent positive selection via NHP CD14 MicroBeads. First the CD14+ cells are magnetically labeled with CD14 MicroBeads. Then the cell suspension is loaded onto a MACS® Column which is placed in the magnetic field of a MACS Separator. The magnetically labeled CD14+ cells are retained in the column. The unlabeled cells run through, this cell fraction is depleted of CD14+ cells. After removal of the column from the magnetic field, the magnetically retained CD14+ cells can be eluted as the positively selected cell fraction. After centrifugation at 200×g for 10 min at room temperature the monocytes were harvested and used directly in binding assay or resuspended in freezing medium (10% DMSO, 90% FCS) at 1.0E+07 cells/ml and stored in liquid nitrogen.
(§6) 1×10⁵ CD14+ isolated cyno monocytes (50 μl/well) were put into 98 well-v bottom MTP in fresh culture medium and incubated with Redimune® NF Liquid for 15 min at RT to block unspecific binding. Than 50 μl/well of Alexa488 labeled anti-TIM3 (10 μg/ml in cell culture medium) were added and incubated for 1 h at 4° C. After washing and centrifugation MFI signals of stained cells were analyzed by BD Biosciences FACSCanto flow cytometer.

human TIM-3 on cells [11] = molecular target: T1, human TIM-3 on cells; experiment: cell-based or functional assay; remark: listed apart in the source
human TIM-3 on cells [12] = molecular target: T1, human TIM-3 on cells; experiment: cell-based or functional assay; remark: listed apart in the source
[13] = molecular target: T2, cynomolgus TIM-3 on isolated cyno CD14+ …; experiment: flow cytometry, cyno CD14+ monocytes cyno1
Description: as §5, §6

human TIM-3 on cells [14] = molecular target: T1, human TIM-3 on cells; experiment: cell ELISA, CHO-K1 expressing human Tim3
Protocol: Then the reaction was stopped by addition of 25 μl/well 1N HCL-solution.

[15] = molecular target: human FolR2 on transiently transfected HEK cells (human, UniProt P14207 17-230); experiment: flow cytometry on HEK cells transiently transfected with human FolR2, anti-human secondary antibody; concentration not given
Chain of human FolR2 on transiently transfected HEK cells (P14207 17-230 limits assumed): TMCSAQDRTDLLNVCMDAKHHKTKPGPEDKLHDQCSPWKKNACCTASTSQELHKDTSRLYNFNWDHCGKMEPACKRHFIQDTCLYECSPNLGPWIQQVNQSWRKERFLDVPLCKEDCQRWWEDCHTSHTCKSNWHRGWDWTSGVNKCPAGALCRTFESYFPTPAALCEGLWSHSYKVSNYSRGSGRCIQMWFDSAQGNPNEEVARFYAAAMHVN

[16] = molecular target: T5, cynomolgus FolR1 ECD-AcTev-Fcknob-Avi tag + Fc hole, biotinylated monomeric Fc fusion (cynomolgus, UniProt P0DOX5 223-449 = IgG part); experiment: SPR, apparent KD, bivalent binding (avidity)
T5 construct: also called cyFolR1; cyno FolR1-Fc
Protocol: (§7) Binding of FolR1 binders as IgG or in the T-cell bispecific format to different recombinant folate receptors (human FolR1, 2 and 3, murine FolR1 and cynomolgus FolR1; all as Fc fusions) was assessed by surface plasmon resonance (SPR).
Recombinant biotinylated monomeric Fc fusions of human, cynomolgus and murine Folate Receptor 1 (FolR1-Fc) were directly coupled on a SA chip using the standard coupling instruction (Biacore, Freiburg/Germany). The immobilization level was about 300-400 RU. The anti-FolR1 IgGs or T cell bispecifics were passed at a concentration range from 2.1 to 500 nM with a flow of 30 μL/minutes through the flow cells over 180 seconds. The dissociation was monitored for 600 seconds. Bulk refractive index differences were corrected for by subtracting the response obtained on reference flow cell immobilized with recombinant biotinylated IL2 receptor Fc fusion. […] The binding curves resulting from the bivalent binding of the IgGs or T cell bispecifics were approximated to a 1:1 Langmuir binding and fitted with that model (which is not correct, but gives an idea of the avidity). The apparent avidity constants for the interactions were derived from the rate constants of the fitting using the Bia Evaluation software (GE Healthcare).

[17] = molecular target: T5, cynomolgus FolR1 ECD-AcTev-Fcknob-Avi …; experiment: SPR, monovalent, antibody captured by anti-Fab
Protocol: as §7
For affinity measurement, direct coupling of around 6000-7000 resonance units (RU) of the anti-human Fab specific antibody (Fab capture kit, GE Healthcare) was performed on a CM5 chip at pH5.0 using the standard amine coupling kit (GE Healthcare). Anti-FolR1 IgGs or T cell bispecifics were captured at 20 nM with a flow rate of 10 μl/min for 20 or 40 sec, the reference flow cell was left without capture. […] The dissociation phase was monitored for 240 sand triggered by switching from the sample solution to HBS-EP. The chip surface was regenerated after every cycle using a double injection of 60 sec 10 mM Glycine-HCl pH 2.1 or pH1.5. Bulk refractive index differences were corrected for by subtracting the response obtained on the reference flow cell 1. The affinity constants for the interactions were derived from the rate constants by fitting to a 1:1 Langmuir binding using the Bia Evaluation software (GE Healthcare).

[18] = molecular target: T6, murine FolR1 ECD-AcTev-Fcknob-Avitag + Fc hole, biotinylated monomeric Fc fusion (murine, UniProt P0DOX5 223-449 = IgG part); experiment: SPR, IgG single injection
T6 construct: also called muFolR1; murine FolR1-Fc

monomeric human Tim3-ECD [19] = molecular target: T7, monomeric human Tim3-ECD (human, UniProt Q8TDQ0 22-202); experiment: SPR Biacore, antibody captured by anti-mouse IgG
T7 construct: also called huTim3
Protocol: as §3, §4

monomeric human Tim3-ECD [20] = molecular target: T7, monomeric human Tim3-ECD; experiment: SPR Biacore, monovalent Tim3
Protocol: as §3, §4

[21] = molecular target: T8, human FolR3 ECD-AcTev-Fcknob-Avi tag + Fc hole, biotinylated monomeric Fc fusion (human, UniProt P0DOX5 223-449 = IgG part); experiment: SPR ProteOn, Fab analyte;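 also: recombinant antigens immobilized, purified Fab two-fold dilutions injected in parallel channels, 200 s association and 600 s dissociation, buffer-only channel as in-line reference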
T8 construct: also called huFolR3; FolR3-Fc
Protocol: (§8) Immobilization of antigens (ligand): Recombinant antigens were diluted with PBST (10 mM phosphate, 150 mM sodium chloride pH 7.4, 0.005% Tween 20) to 10 μg/ml, then injected at 30 μl/minute in vertical orientation.
(§9) Injection of analytes: For ‘one-shot kinetics’ measurements, injection direction was changed to horizontal orientation, two-fold dilution series of purified Fab (varying concentration ranges) were injected simultaneously along separate channels 1-5, with association times of 200 s, and dissociation times of 600 s. Buffer (PBST) was injected along the sixth channel to provide an “in-line” blank for referencing. Association rate constants (kₒₙ) and dissociation rate constants (koff) were calculated using a simple one-to-one Langmuir binding model in ProteOn Manager v3.1 software by simultaneously fitting the association and dissociation sensorgrams. The equilibrium dissociation constant (KD) was calculated as the ratio koff/kₒₙ.

[22] = molecular target: T6, murine FolR1 ECD-AcTev-Fcknob-Avitag + …; experiment: SPR ProteOn, Fab analyte;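 also: recombinant antigens immobilized, purified Fab two-fold dilutions injected in parallel channels, 200 s association and 600 s dissociation, buffer-only channel as in-line reference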
Protocol: as §8, §9

[23] = molecular target: T9, human FolR1 ECD-AcTev-Fcknob-Avi tag + Fc hole, biotinylated monomeric Fc fusion (human, UniProt P0DOX5 223-449 = IgG part); experiment: SPR ProteOn, Fab analyte;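 also: recombinant antigens immobilized, purified Fab two-fold dilutions injected in parallel channels, 200 s association and 600 s dissociation, buffer-only channel as in-line reference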
T9 construct: also called huFolR1; huFolR1-Fc
Protocol: as §8, §9

[24] = molecular target: T10, human FolR2 ECD-AcTev-Fcknob-Avi tag + Fc hole, biotinylated monomeric Fc fusion (human, UniProt P0DOX5 223-449 = IgG part); experiment: SPR ProteOn, Fab analyte;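 also: recombinant antigens immobilized, purified Fab two-fold dilutions injected in parallel channels, 200 s association and 600 s dissociation, buffer-only channel as in-line reference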
T10 construct: also called huFolR2; FolR2-Fc
Protocol: as §8, §9

[25] = molecular target: T5, cynomolgus FolR1 ECD-AcTev-Fcknob-Avi …; experiment: SPR ProteOn, Fab analyte
Protocol: as §8, §9

B1: Tim3_0016 Fab-PE24 construct (Fab, V domains shown)
VH: QVTLKESGPGILQPSQTLRLTCSFSGFSLSTSGMSVGWIRQPSGKGLEWLAHIWLNDDVFFNPALKSRLTISKDTSNNQVFLQIASVVTADTATYYCVRANGYLYALDYWGQGTSVTVSS
VL: QIVLTQSPAIMSASPGQKVTITCSASSSVNYTQWYQQKLGSSPKLWIYDAFKLAPGVPARFSGSGTGTSYSLTISSMEAEDAASYFCHQWSSYPWTFGGGTKLEIK
IC50 cytotoxicity, primary AML CD34+ PB0135 (human TIM-3 on cells [1]): > 691 nM | IC50 cytotoxicity, primary AML CD34+ PB0136 (human TIM-3 on cells [1]): > 691 nM | IC50 cytotoxicity, CMK (human TIM-3 on cells [2]): 225 nM | IC50 cytotoxicity, Karpas-299 (human TIM-3 on cells [2]): 4 nM | IC50 cytotoxicity, MOLM-13 (human TIM-3 on cells [2]): 459 nM | IC50 cytotoxicity, TF-1 (human TIM-3 on cells [2]): 534 nM

B2: Tim3_0033 Fab-PE24 construct (Fab, V domains shown)
VH: QGQMHQSGAELVKPGSSVKLSCKTSGFTFSSSFISWLKQKPGQSLEWIAWIYAATGSTSYNQKFTNKAQLTVDTSSSAAYMQFSSLTTEDSAIYYCARHAGYPHYYAMDYWGQGTSVTVSS
VL: DIQMTQSPASLSASVGETVTITCRASENIFSNLAWYQQKQGKSPQLLVYSATNLGDGVPSRFSGSGSGTQFSLKINSLQPEDFGNYYCQHFYKIPFTFGTGTKLEIK
Max. killing, Pfeiffer cells (human TIM-3 on cells [3]): 99.8% | Max. killing, RPMI-8226 cells (human TIM-3 on cells [3]): 99.7%

B3: Tim3_0033 (antibody, V domains shown)
VH: B2 VH
VL: B2 VL
MFI [4]: 83 MFI | specific binding MFI (human TIM-3 on cells [5]): 328 MFI | Kd [6]: 3.1 nM | Kd [7]: 3.05 nM | specific binding MFI (human TIM-3 on cells [8]): 480 MFI | specific binding MFI (human TIM-3 on cells [9]): 595 MFI | EC50 (Tim3-ECD-His-Biotin): 1.32 µg/mL | MFI [10]: 81 MFI | IFN-gamma release in MLR at 1 µg/ml, % of IL-2 control (human TIM-3 on cells [11]): 0% | IFN-gamma release in MLR at 10 µg/ml, % of IL-2 control (human TIM-3 on cells [11]): 30% | IFN-gamma release in MLR at 40 µg/ml, % of IL-2 control (human TIM-3 on cells [11]): 35% | internalization at 30 Min, RPMI-8226 (human TIM-3 on cells [12]): 75% | internalization at 60 Min, RPMI-8226 (human TIM-3 on cells [12]): 81% | internalization at 120 Min, RPMI-8226 (human TIM-3 on cells [12]): 82% | internalization at 240 Min, RPMI-8226 (human TIM-3 on cells [12]): 82% | internalization at 26 h, RPMI-8226 (human TIM-3 on cells [12]): 80% | MFI [13]: 71 MFI | EC50 (human TIM-3 on cells [14]): 3.71 µg/mL

B4: 11F8 IgG (antibody, V domains shown)
VH: QVQLVQSGAEVKKPGSSVKVSCKASGGTFSSYAISWVRQAPGQGLEWMGGIIPIFGTANYAQKFQGRVTITADKSTSTAYMELSSLRSEDTAVYYCARAVFYRAWYSFDYWGQGTTVTVSS
VL: DIQMTQSPSTLSASVGDRVTITCRASQSISSWLAWYQQKPGKAPKLLIYDASSLESGVPSRFSGSGSGTEFTLTISSLQPDDFATYYCQQYTSPPPTFGQGTKVEIK
notes: human IgG1
binding result [15]: binds

B5: Tim3_0022 Fab-PE24 construct (Fab, V domains shown)
VH: EVQLQESGPSLVKPSQTLSLTCSVTGDSIASAYWNWIRKFPGNKLEYMGYINYSGSTYYNPSLKSRISITRDTSQNQYYLQLNSVTTEDTATYYCVTGDYFDYWGRGTTLTVSS
VL: DIQMTQSPSSLSAYLGGKVTITCKARQDVRKNIGWYQHKPGKGPRLLIWYTSTLQSGIPSRFSGSGSGRDYSFNINNLEPEDIATYYCLQYDNLPFTFGTGTKLEIR
IC50 cytotoxicity, primary AML CD34+ PB0135 (human TIM-3 on cells [1]): > 691 nM | IC50 cytotoxicity, primary AML CD34+ PB0136 (human TIM-3 on cells [1]): > 691 nM | IC50 cytotoxicity, CMK (human TIM-3 on cells [2]): 255 nM | IC50 cytotoxicity, Karpas-299 (human TIM-3 on cells [2]): 10 nM | IC50 cytotoxicity, MOLM-13 (human TIM-3 on cells [2]): 579 nM | IC50 cytotoxicity, TF-1 (human TIM-3 on cells [2]): 299 nM

B6: Farletuzumab (antibody, V domains shown)
VH: EVQLVESGGGVVQPGRSLRLSCSASGFTFSGYGLSWVRQAPGKGLEWVAMISSGGSYTYYADSVKGRFAISRDNAKNTLFLQMDSLRPEDTGVYFCARHGDDPAWFAYWGQGTPVTVSS
VL: DIQLTQSPSSLSASVGDRVTITCSVSSSISSNNLHWYQQKPGKAPKPWIYGTSNLASGVPSRFSGSGSGTDYTFTISSLQPEDIATYYCQQWSSYPYMYTFGQGTKVEIKR
Kd [16]: 0.65 nM | Kd [17]: 67.3 nM

B7: 5D9 IgG (antibody, V domains shown)
VH: QVQLVQSGAEVKKPGASVKVSCKASGYTFTSYYMHWVRQAPGQGLEWMGIINPSGGSTSYAQKFQGRVTMTRDTSTSTVYMELSSLRSEDTAVYYCARSYIDMDYWGQGTLVTVSS
VL: EIVLTQSPGTLSLSPGERATLSCRASQSVSSSYLAWYQQKPGQAPRLLIYGASSRATGIPDRFSGSGSGTDFTLTISRLEPEDFAVYYCQQDNWSPTFGQGTKVEIK
notes: human IgG1
binding result [18]: no binding (tested: 500 nM) | binding result [15]: binds

B8: Tim3_0021 Fab-PE24 construct (Fab, V domains shown)
VH: QVQLQQSGPQLVRPGASVQISCKASGYSFTSYLLHWLKQRPGQGLEWIGMIDPSDSETRLNQKFKDKATLTVDKSSSTAYMQLSSPTSEDSAVYYCARDGYYAWYYFDCWGQGTTLTVSS
VL: DIVLTQSPATLSVTPGDRVSLSCRASQSIGNNLHWYQQKSHESPRLLIKYASHSISGIPSKFSGTGSGTDFTLSFNSVETEDFGMYFCQQSNSWPLTFGAGTKLELK
Max. killing, Pfeiffer cells (human TIM-3 on cells [3]): 98.4%

B9: Tim3_0021 (antibody, V domains shown)
VH: B8 VH
VL: B8 VL
MFI [4]: 399 MFI | specific binding MFI (human TIM-3 on cells [5]): 951 MFI | Kd [6]: 4.1 nM | Kd [7]: 4.07 nM | Kd (monomeric human Tim3-ECD [19]): 204 nM | specific binding MFI (human TIM-3 on cells [8]): 1130 MFI | specific binding MFI (human TIM-3 on cells [9]): 1200 MFI | EC50 (Tim3-ECD-His-Biotin): 0.047 µg/mL | MFI [10]: 473 MFI | IFN-gamma release in MLR at 1 µg/ml, % of IL-2 control (human TIM-3 on cells [11]): 101% | IFN-gamma release in MLR at 10 µg/ml, % of IL-2 control (human TIM-3 on cells [11]): 108% | IFN-gamma release in MLR at 40 µg/ml, % of IL-2 control (human TIM-3 on cells [11]): 112% | internalization at 30 Min, RPMI-8226 (human TIM-3 on cells [12]): 70% | internalization at 60 Min, RPMI-8226 (human TIM-3 on cells [12]): 75% | internalization at 120 Min, RPMI-8226 (human TIM-3 on cells [12]): 74% | internalization at 240 Min, RPMI-8226 (human TIM-3 on cells [12]): 78% | internalization at 26 h, RPMI-8226 (human TIM-3 on cells [12]): 77% | Kd (monomeric human Tim3-ECD [20]): 204 nM | MFI [13]: 348 MFI | EC50 (human TIM-3 on cells [14]): 0.073 µg/mL

B10: 15B6 Fab (Fab, V domains shown)
VH: QVQLVQSGAEVKKPGASVKVSCKASGYTFTSYYMHWVRQAPGQGLEWMGIINPSGGSTSYAQKFQGRVTMTRDTSTSTVYMELSSLRSEDTAVYYCARNYYIGIVPFDYWGQGTLVTVSS
VL: QAVVTQEPSLTVSPGGTVTLTCGSSTGAVTTSNYANWVQEKPGQAFRGLIGGTNKRAPGTPARFSGSLLGGKAALTLSGAQPEDEAEYYCALWYSNLWVFGGGTKLTVL
binding result [21]: no binding | binding result [22]: no binding | Kd [23]: 19.1 nM | binding result [24]: no binding | Kd [25]: 13.9 nM

B11: 16F12 Fab (Fab, V domains shown)
VH: B10 VH with Y100F, Y101T, I102V, G103L, I104R
VL: B10 VL
binding result [21]: no binding | binding result [22]: no binding | Kd [23]: 68 nM | binding result [24]: no binding | Kd [25]: 90.9 nM
